Paper PMC9731233

How the values were obtained:
[1] = biological target: antitoxin PrpA^FL (Pseudoalteromonas rubra); assay: SEC-MALS; purified PrpTA complex, PrpA^FL and PrpA^2–54 samples (Figure 1A); buffer of these runs not told
[2] = biological target: antitoxin PrpA^FL (Pseudoalteromonas rubra); assay: crystal structure; PrpTA complex, ~3.6 mg/ml in 0.1 M NaCl, 0.05 M Tris pH 8.0; sitting drop, 16°C; molecular replacement
[3] = biological target: truncated antitoxin PrpA^2–54 (Pseudoalteromonas rubra); assay: SEC-MALS; PrpA^2–54 in phosphate buffer (PB), 100 mM NaH2PO4/Na2HPO4 pH 8.0
[4] = biological target: truncated antitoxin PrpA^2–54 (Pseudoalteromonas rubra); assay: SEC-MALS; purified PrpTA complex, PrpA^FL and PrpA^2–54 samples (Figure 1A); buffer of these runs not told
[5] = biological target: truncated antitoxin PrpA^2–54 (Pseudoalteromonas rubra); assay: SEC-MALS; PrpA^2–54 at increased protein concentration (within a limited range; concentrations not given)
[6] = biological target: truncated antitoxin PrpA^2–54 (Pseudoalteromonas rubra); assay: crystal structure; PrpA^2–54 form I and form II, ~5.2 mg/ml in 0.1 M NaCl, 0.05 M Tris pH 8.0; sitting drop, 16°C; molecular replacement with VcParD2 (PDB 7B22)

antitoxin PrpA^FL (natural protein)
stoichiometry N [1]: 4 | stoichiometry N [2]: 2

truncated antitoxin PrpA^2–54 (domain or fragment)
stoichiometry N [3]: 4 | stoichiometry N [4]: 2 | stoichiometry N [5]: 6 | stoichiometry N [6]: 16
